Like-named read-outs stand apart in the source and are kept apart here.

For test [1], the target named is C5a receptor C5aR (CD88) on human blood neutrophils (human) (UniProt P21730). Description: cell-based or functional assay.
The target is the same in test [2]. Description: cell-based or functional assay. This is another data set of the same source.
The target in test [3] is recombinant human C5a (rhC5a) (human) (UniProt P01031).
Sequence of recombinant human C5a (rhC5a) (human) (P01031 678-751 limits assumed): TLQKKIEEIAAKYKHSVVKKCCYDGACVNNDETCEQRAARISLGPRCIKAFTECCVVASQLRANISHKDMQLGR

Sequence of C5a receptor C5aR (CD88) on human blood neutrophils (human) (P21730 whole entry): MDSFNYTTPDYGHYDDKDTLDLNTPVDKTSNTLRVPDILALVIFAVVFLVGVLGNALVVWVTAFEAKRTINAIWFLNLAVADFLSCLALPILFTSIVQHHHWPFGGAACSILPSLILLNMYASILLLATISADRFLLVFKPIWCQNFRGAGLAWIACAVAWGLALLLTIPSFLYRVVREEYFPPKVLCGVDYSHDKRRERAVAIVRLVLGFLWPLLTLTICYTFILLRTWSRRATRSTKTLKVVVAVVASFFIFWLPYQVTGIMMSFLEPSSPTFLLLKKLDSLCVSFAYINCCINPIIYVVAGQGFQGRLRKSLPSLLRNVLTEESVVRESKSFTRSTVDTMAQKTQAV

With “recombinant human C5a (rhC5a) (from UniProt P01031 678-751) (ligand)”, the CD11b (mean MFI) on neutrophils; huPP | rhC5a (20 nM) was determined as 6330 MFI in test [1] and 8330 MFI in test [2].
Regarding anti-C5aR (CD88) antibody Clone S5/1, in test [1], the Blocking activity (%) on CD11b upregulation; Pat. 088 | Clone S5/1 (50 nM) worked out at 72.7%, the Blocking activity (%) on CD11b upregulation; Pat. 092 | Clone S5/1 (50 nM) amounted to 75.9%, the Blocking activity (%) on CD11b upregulation; huPP | rhC5a | Clone S5/1 (50 nM) stood at 73% and the CD11b (mean MFI) on neutrophils; Pat. 088 | Clone S5/1 (50 nM) came to 3740 MFI. In test [1], this substance had a CD11b (mean MFI) on neutrophils; Pat. 092 | Clone S5/1 (50 nM) of 3560 MFI and a CD11b (mean MFI) on neutrophils; huPP | rhC5a | Clone S5/1 (50 nM) of 3290 MFI.
irrelevant human IgG4 antibody: the blocking activity (%) of rhC5a-induced CD11b upregulation on neutrophils, human whole blood, flow cytometry; bar 'IgG4 control : rhC5a = 1:1' against rhC5a (16.7 nM) alone in test [3] came to 7%.
In test [1], anti-C5aR (CD88) antibody Clone 7H110 came in with a Blocking activity (%) on CD11b upregulation; Pat. 088 | Clone 7H110 (50 nM) of 75.7%, a Blocking activity (%) on CD11b upregulation; Pat. 092 | Clone 7H110 (50 nM) of 78.7%, a Blocking activity (%) on CD11b upregulation; huPP | rhC5a | Clone 7H110 (50 nM) of 70.7% and a CD11b (mean MFI) on neutrophils; Pat. 088 | Clone 7H110 (50 nM) of 3560 MFI. In test [1], the CD11b (mean MFI) on neutrophils; Pat. 092 | Clone 7H110 (50 nM) came out at 3390 MFI and the CD11b (mean MFI) on neutrophils; huPP | rhC5a | Clone 7H110 (50 nM) was determined as 3380 MFI.
PMX-53 (peptide): in test [1], the Blocking activity (%) on CD11b upregulation; Pat. 088 | PMX 53 (50 nM) is 55.5%, the Blocking activity (%) on CD11b upregulation; Pat. 092 | PMX 53 (50 nM) came out at 56.7%, the Blocking activity (%) on CD11b upregulation; huPP | rhC5a | PMX 53 (50 nM) amounted to 50.3% and the CD11b (mean MFI) on neutrophils; Pat. 088 | PMX 53 (50 nM) was determined as 4730 MFI. Further, in test [1], the CD11b (mean MFI) on neutrophils; Pat. 092 | PMX 53 (50 nM) was 4660 MFI and the CD11b (mean MFI) on neutrophils; huPP | rhC5a | PMX 53 (50 nM) amounted to 4240 MFI. Besides, in test [2], the Blocking activity (%) on CD11b upregulation; Pat. 088 | PMX 53 (20 µM) worked out at 104%, the Blocking activity (%) on CD11b upregulation; Pat. 092 | PMX 53 (20 µM) is 109%, the Blocking activity (%) on CD11b upregulation; huPP | rhC5a | PMX 53 (20 µM) was determined as 108% and the CD11b (mean MFI) on neutrophils; Pat. 088 | PMX 53 (20 µM) turned out to be 2030 MFI. In test [2], the CD11b (mean MFI) on neutrophils; Pat. 092 | PMX 53 (20 µM) was 1910 MFI and the CD11b (mean MFI) on neutrophils; huPP | rhC5a | PMX 53 (20 µM) amounted to 1850 MFI.

Values taken from patent publication US20210046191A1.
